Experimental data: patent US20070116673A1, “Method for activating T cell protein phosphatase and therapeutical methods based thereon” (Valtion Teknillinen Tutkimuskeskus, priority 2005, published 2007)
Structures can show the parent of a compound that is named as a salt.

How the values were obtained:
HeLa cells = experiment: Microinjection of fluorescein diphosphate (FDP) and peptide into live HeLa cells, phosphatase activity; format: cell-based, human; settings: 1 mg/ml peptide co-injected with 1 mM FDP, 30 min; compared with α2 or PBS; FIG. 4A
Method: Cells were plated on acid-washed glass coverslips coated with collagen type I, fibronectin or poly-L-lysine (10 μg/ml) and allowed to adhere for 1 h. Cells were washed in PBS and fixed with 4% paraformaldehyde for 10 min. For antibody staining, cells were permeabilized in PBS/0.1% Triton X-100 and washed with PBS/1% (w/v) BSA for blocking. Cells were stained with antibodies as indicated for 1 h at room temperature. Cells were then washed three times with PBS before detection with Alexa-488 or Alexa-555-conjugated anti-rabbit or anti-mouse antibodies (Molecular Probes). After washing in PBS and water, cells were mounted in Mowiol (100 mM Tris-HCl at pH 8.5, 10% (w/v) Mowiol (Calbiochem, San Diego, Calif.) and 25% (v/v) glycerol containing antifade (2.5% (w/v) 1,4-diazadicyclo-2.2.2-octane (Sigma)). Slides were examined using Zeiss inverted fluorescence microscope or a confocal laser scanning microscope (Axioplan 2 with LSM 510; Carl Zeiss Inc., Jena, Germany) equipped with 63×/1.4 Plan-Apochromat oil immersion objectives. Confocal images represent a single z-section of approximately 1.0 μm. Cytosolic microinjections with 1 mM FDP (Molecular probes) and 1 mg/ml of peptide in PBS were performed on Hela cells cultured on glass-bottom 3 cm plates. Fluorescence images from live cells were taken with identical settings and intensities were quantified using Zeiss Axioplan4 software.

TCPTP [1] = target: T1, TCPTP (Homo sapiens, UniProt P17706); experiment: Pull-down competition: purified TCPTP with GST-α1cyt fusion protein; format: binding; set-up: purified full-length TCPTP was incubated in the lysis buffer with GST-fusion proteins; GST (N); made in house; host or cells: E. coli BL21 pLysS; settings: peptide 1 μg/ml, TCPTP 1 μg; FIG. 1F
T1 sequence (P17706 1-387 isoform P17706-2): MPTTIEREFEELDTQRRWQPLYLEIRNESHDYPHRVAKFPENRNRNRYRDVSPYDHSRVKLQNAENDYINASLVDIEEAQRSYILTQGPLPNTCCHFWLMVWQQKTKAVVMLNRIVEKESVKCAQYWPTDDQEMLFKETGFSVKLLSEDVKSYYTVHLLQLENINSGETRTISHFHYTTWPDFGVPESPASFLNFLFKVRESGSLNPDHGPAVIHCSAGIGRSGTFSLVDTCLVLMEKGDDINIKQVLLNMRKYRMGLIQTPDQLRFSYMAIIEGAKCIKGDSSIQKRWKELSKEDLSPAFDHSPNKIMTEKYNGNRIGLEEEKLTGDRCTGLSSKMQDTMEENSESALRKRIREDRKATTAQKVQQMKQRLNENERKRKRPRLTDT
Method: α1cyt and a2cyt were subcloned into pGEX4T1 (Amersham Biosciences). Full length TCPTP (45 kD) and its deletion mutants were PCR-amplified from pCG-TC45 plasmid^11 and cloned into pGEX-6P-1. GST-fusion proteins were expressed in E. coli (BL21 pLysS) and purified using manufacturer's instructions (Amersham Biosciences). Fusion proteins were either used immobilized to Glutathione-sepharose, eluted with 25 mM glutathione or GST was cleaved using precision protease according to manufacturers instructions (Amersham Biosciences). For pull-down assays, Hela cells were lysed to lysis buffer (1% octylglycoside, 50 mM Tris-HCl pH 7.5, 150 mM NaCl, 1 mM MgCl2, complete protease inhibitor (Roche)), clarified with centrifugation 10 min 13000 rpm+4 C, precleared with glutathione-sepharose and incubated with immobilized GST-fusion proteins and washed 3 times with 1 ml on the same buffer. Bound proteins were resolved on SDS-PAGE and detected with western blot. Alternatively, purified full-length TCPTP was incubated in the lysis buffer with GST-fusion proteins as indicated in the presence or absence of synthetic integrin α1 cytoplasmic tail peptide (RPLKKKMEKRPLKKKMEK, (SEQ ID NO:5) Genemed Synthesis).

SHP-2 = target: T2, SHP-2 (Homo sapiens, UniProt Q06124); experiment: Phosphatase assay of immunoprecipitated SHP-2 from HeLa lysates (diFMUP substrate); format: biochemical; settings: FIG. 2A
T2 construct: endogenous in cells; host or cells: HeLa
T2 sequence (Q06124 1-593): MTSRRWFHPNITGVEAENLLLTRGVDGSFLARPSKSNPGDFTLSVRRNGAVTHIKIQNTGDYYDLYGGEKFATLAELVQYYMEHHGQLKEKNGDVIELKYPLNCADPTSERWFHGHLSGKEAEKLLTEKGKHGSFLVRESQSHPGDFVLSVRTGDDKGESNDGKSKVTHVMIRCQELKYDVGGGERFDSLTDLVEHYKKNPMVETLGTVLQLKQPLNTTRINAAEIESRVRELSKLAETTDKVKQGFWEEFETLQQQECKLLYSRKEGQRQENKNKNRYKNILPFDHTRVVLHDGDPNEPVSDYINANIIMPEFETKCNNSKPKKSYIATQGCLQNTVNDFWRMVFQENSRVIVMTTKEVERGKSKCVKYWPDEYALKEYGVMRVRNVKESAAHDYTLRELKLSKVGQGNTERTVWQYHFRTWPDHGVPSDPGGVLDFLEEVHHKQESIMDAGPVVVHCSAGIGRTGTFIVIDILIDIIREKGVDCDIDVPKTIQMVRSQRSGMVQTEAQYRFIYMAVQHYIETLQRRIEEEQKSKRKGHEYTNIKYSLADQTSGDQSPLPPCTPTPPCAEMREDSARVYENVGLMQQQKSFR
Method: (§1) Serum starved Hela cells were either left untreated on plastic, stimulated with 10% FBS for 30 min or detached and replated on collagen type I or poly-L-lysine (10 μg/ml, Sigma) coated tissue-culture plates for 1 h. When indicated cells were surface biotinylated as described^12. Cells were either lysed in Laemmli sample buffer and fractionated on SDS-PAGE for western blotting or lysed in lysis buffer and equal amounts of protein from each sample were precleared with protein G-Sepharose and subjected to immunoprecipitation. Antibodies (anti-TCPTP, Oncogene; anti-a1, anti-a5, anti-a6, all from Chemicon; anti-SHP-2, Santa Cruz) were incubated with protein G-Sepharose and immunoprecipitation was performed at 4° C. for 2 h. The immunoprecipitates were washed three times with cell lysis buffer. For co-precipitation assays, proteins were resolved on SDS-PAGE followed with western blotting or detection of biotin with Vectastain reagent (Vector). […] The phosphatase reaction was allowed to proceed for 10 minutes in RT and stopped with urea followed with measurement of umbelliferone fluorescence according to manufacturers instructions (Molecular Probes). […] Specific binding of antibodies was detected with peroxidase-conjugated secondary antibodies and visualized by enhanced chemiluminescence detection.

TCPTP [2] = target: T3, TCPTP (Homo sapiens, UniProt P17706); experiment: Phosphatase assay of immunoprecipitated TCPTP from HeLa lysates (diFMUP substrate); format: biochemical; settings: peptide preincubated with immunoprecipitate 15 min; FIG. 2A
T3 construct: endogenous in cells; host or cells: HeLa
T3 sequence (P17706 1-415): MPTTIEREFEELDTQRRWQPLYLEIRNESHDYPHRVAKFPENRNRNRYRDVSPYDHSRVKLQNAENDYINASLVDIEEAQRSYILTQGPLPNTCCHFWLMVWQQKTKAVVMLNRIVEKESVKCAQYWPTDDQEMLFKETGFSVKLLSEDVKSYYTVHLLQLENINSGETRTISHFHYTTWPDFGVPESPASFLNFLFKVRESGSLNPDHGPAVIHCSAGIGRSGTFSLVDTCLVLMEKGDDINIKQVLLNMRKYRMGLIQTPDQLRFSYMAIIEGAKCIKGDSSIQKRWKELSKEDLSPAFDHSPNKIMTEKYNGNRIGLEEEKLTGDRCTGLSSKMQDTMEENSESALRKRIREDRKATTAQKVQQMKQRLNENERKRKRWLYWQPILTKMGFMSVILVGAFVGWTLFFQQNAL
Method: as §1

TCPTP [3] = target: T1, TCPTP; experiment: Phosphatase assay with recombinant, purified TCPTP (diFMUP substrate); format: biochemical; set-up: For phosphatase assays with purified protein, full length TCPTP was incubated in phosphatase reaction buffer; GST (N); made in house; host or cells: E. coli BL21 pLysS; settings: FIG. 2B; for activation of TCPTP by small molecule compounds: preincubated with 0.2 μg/ml TCPTP 10 minutes RT, different concentrations
Method: Serum starved Hela cells were either left untreated on plastic, stimulated with 10% FBS for 30 min or detached and replated on collagen type I or poly-L-lysine (10 μg/ml, Sigma) coated tissue-culture plates for 1 h. When indicated cells were surface biotinylated as described^12. Cells were either lysed in Laemmli sample buffer and fractionated on SDS-PAGE for western blotting or lysed in lysis buffer and equal amounts of protein from each sample were precleared with protein G-Sepharose and subjected to immunoprecipitation. Antibodies (anti-TCPTP, Oncogene; anti-a1, anti-a5, anti-a6, all from Chemicon; anti-SHP-2, Santa Cruz) were incubated with protein G-Sepharose and immunoprecipitation was performed at 4° C. for 2 h. The immunoprecipitates were washed three times with cell lysis buffer. For co-precipitation assays, proteins were resolved on SDS-PAGE followed with western blotting or detection of biotin with Vectastain reagent (Vector). For phosphatase assays, immunoprecipitates were resuspended in phosphatase reaction buffer (25 mM Hepes pH 7.4, 50 mM NaCl, 1 mM DTT) and ⅓ of the reaction was subjected to western blotting and the remaining beads were assayed for phosphatase activity in triplicate using diFMUP (Molecular Probes) as a substrate and in the presence of serine/threonine phosphatase inhibitor cocktail (Sigma) according to manufacturers instructions. When indicate synthetic peptides were preincubated with the immunoprecipitates for 15 min prior to phosphatase assay reaction (α2 peptide […] (SEQ ID NO:6), a kind gift from Dr Heino). For phosphatase assays with purified protein, full length TCPTP was incubated in phosphatase reaction buffer in the presence or absence of TCPTP deletion mutant proteins and synthetic integrin cytoplasmic tail peptides as indicated. […] The phosphatase reaction was allowed to proceed for 10 minutes in RT and stopped with urea followed with measurement of umbelliferone fluorescence according to manufacturers instructions (Molecular Probes). Western blotting was performed with commercial antibodies raised against EGFR, EGFR(PY)845, 992 or 1068 (Cell Signalling Technologies), TCPTP (Oncogene) or tubulin (Santa Cruz Biotechnology). Specific binding of antibodies was detected with peroxidase-conjugated secondary antibodies and visualized by enhanced chemiluminescence detection.

Row | Compound | activation of SHP-2 phosphatase (SHP-2) | increase of catalytic activity of immunoprecipitated TCPTP (TCPTP [2]) | activation of TCPTP by small molecule compounds (TCPTP [3]) | also measured
1 | synthetic α1 tail peptide: synthetic integrin α1 cytoplasmic tail peptide RPLKKKMEKRPLKKKMEK (SEQ ID NO:5), Genemed Synthesis (fusion protein) | not activated | 2.95±0.48 fold |  | phosphatase activity in live HeLa cells (FDP fluorescence) (HeLa cells): induced phosphatase activity; competition with α1cyt for the association with TCPTP (TCPTP [1]): able to compete; activation of recombinant, purified TCPTP by peptide (TCPTP [3]; TCPTP 0.15 μg/ml, different peptide concentrations): highly activated
2 | α2 tail peptide: synthetic α2 integrin cytoplasmic tail peptide KLGFFKRKYEKMTKNPDEIDETTELSS (SEQ ID NO:6) (fusion protein) | not activated | no effect |  | 
3 | NCCCCNCCCN [Spermidine] |  |  | able to activate TCPTP | 
4 | O=C1c2c(O)ccc(O)c2C(=O)c2c(NCCNCCO)ccc(NCCNCCO)c21 [Mitoxantrone] |  |  | able to activate TCPTP | 
5 | NCCC1CCCC(CCN)N1 (centres unmarked) [MDL-26,630 trihydrochloride] |  |  | able to activate TCPTP | 
6 | N.N.N.N.N.N.N.N.N.N.N.N.N.N.[Cl-].[Cl-].[Cl-].[Cl-].[Cl-].[Cl-].[O-2].[O-2].[Ru+3].[Ru+3].[Ru+4] [Ruthenium Red] |  |  | able to activate TCPTP | 
